# Laboratory results reported in patent US8445444B2, “Compositions and methods for diagnosing, treating, and preventing prostate conditions” (Phigenix, Inc., priority 2007, dated 2013).
# Entries after “also recorded” stand apart in the source; their conditions may differ.
# How the values were obtained:
# Type in all cases: cell-based, human
# [1] = test system: LNCaP; test: MTT cell viability assay; settings: DEFB1 (hBD-1) induction 24-72 h
# Description: (§1) MTT Cell Viability Assay: To examine the effects of DEFB1 on cell growth, metabolic 3-[4,5-dimethylthiazol-2-yl]-2,5 diphenyl tetrazolium bromide (MTT) assays were performed. PC3, DU145 and LNCaP cells co-transfected with pVgRXR plasmid and pIND/DEFB1 construct or empty pIND vector were seeded onto a 96-well plate at 1-5×10^3 cells per well. Twenty-four hours after seeding, fresh growth medium was added containing 10 μM Ponasterone A daily to induce DEFB1 expression for 24-, 48- and 72 hours after which the MTT assay was performed according to the manufacturer's instructions (Promega). Reactions were performed three times in triplicate.
# (§2) MTT Cytotoxicity Assay: DU145, PC3 and LNCaP cells (1×105) were transfected with 0.5 μg of the PAX2 siRNA pool or control siRNA pool using Codebreaker transfection reagent according to the manufacturer's protocol (Promega). Next, cell suspensions were diluted and seeded onto a 96-well plate at 1-5×10^3 cells per well and allowed to grow for 2-, 4- or 6 days. After culture, cell viability was determined by measuring the conversion of 3-[4,5-dimethylthiazol-2-yl]-2,5 diphenyl tetrazolium bromide, MTT (Promega), to a colored formazan product. Absorbance was read at 540 nm on a scanning multiwell spectrophotometer.
# (§3) MTT cell viability assay: To examine the effects of hBD-1 on cell growth, metabolic 3-[4,5-dimethylthiazol-2-yl]-2,5-diphenyl tetrazolium bromide (MTT) assay was performed. DU145, LNCaP, PC3 and PC3/AR+ cells co-transfected with pvgRXR plasmid and pIND/hBD-1 construct or control pvgRXR plasmid were seeded onto a 96-well plate at 1-5×10^3 cells per well. Twenty-four hours after seeding, fresh growth medium was added containing 10 μM Pon A daily to induce hBD-1 expression for 24, 48 and 72 h after which the MTT assay was performed according to the manufacturer's instructions (Promega). Reactions were performed three times in triplicate.
# (§4) MTT cytotoxicity assay: DU145, PC3 and LNCaP cell suspensions were diluted and seeded onto a 96-well plate at 1-5×10^3 cells per well. Next the cells were transfected, according to the manufacturer's protocol (Promega), with 5 pg/cell of the PAX2 siRNA pool, control siRNA pool, or the Codebreaker transfection reagent alone. All cells were allowed to grow for 2-, 4- or 6 days after treatment. Cell viability was then determined by measuring the conversion of 3-[4,5-dimethylthiazol-2-yl]-2,5 diphenyl tetrazolium bromide, MTT (Promega) to a colored formazan product. Absorbance was read at 540 nm on a scanning multi-well spectrophotometer.
# [2] = test system: DU145; test: MTT cell viability assay
# Description: as §1, §2, §3, §4
# [3] = test system: PC3; test: MTT cell viability assay
# Description: as §1, §2, §3, §4
# [4] = test system: LNCaP; test: Phase contrast microscopy of cell growth; settings: 48 h DEFB1 induction
# Description: (§5) Microscopic Analysis: Cell morphology was analyzed by phase contrast microscopy. DU145, PC3 and LNCaP cells containing no vector, empty plasmid or DEFB1 plasmid were seeded onto 6 well culture plates (BD Falcon, USA). The following day plasmid-containing cells were induced for a period of 48 h with media containing 10 μM Ponasterone A, while control cells received fresh media. The cells were then viewed under an inverted Zeiss IM 35 microscope (Carl Zeiss, Germany). Phase contrast pictures of a field of cells were obtained using the SPOT Insight Mosaic 4.2 camera (Diagnostic Instruments, USA). Cells were examined by phase contrast microscopy under 32× magnification and digital images were stored as uncompressed TIFF files and exported into Photoshop CS software (Adobe Systems, San Jose, Calif.) for image processing and hard copy presentation.
# (§6) Phase Contrast Microscopy: The effect of PAX2 knock-down on cell growth was analyzed by phase contrast microscopy. Here, 1-2×10^4 cells were seeded onto 6 well culture plates (BD Falcon, USA). The following day cells were treated with media only, negative control non-specific siRNA or PAX2 siRNA and allowed to incubate for six days. The cells were then viewed under an inverted Zeiss IM 35 microscope (Carl Zeiss, Germany) at 32× magnification. Phase contrast pictures of a field of cells were obtained using the SPOT Insight Mosaic 4.2 camera (Diagnostic Instruments, USA).
# (§7) Phase contrast microscopy: The effect of PAX2 knockdown on cell number was analyzed by phase contrast microscopy. Here, 1-2×10^4 cells were seeded overnight onto six-well culture plates (BD Falcon, USA). Next the cells were treated with media only, negative control non-specific siRNA or PAX2 siRNA and allowed to incubate for 6 days. The cells were then viewed under an inverted Zeiss IM 35 microscope (Carl Zeiss, Germany). Phase contrast pictures of a field of cells were obtained using the SPOT Insight Mosaic 4.2 camera (Diagnostic Instruments, USA).
# [5] = test system: DU145; test: Phase contrast microscopy of cell growth; settings: DU145, 48 h DEFB1 induction
# Description: as §5, §6, §7
# [6] = test system: PC3; test: Phase contrast microscopy of cell growth; settings: PC3, 48 h DEFB1 induction
# Description: as §5, §6, §7
# [7] = test system: LNCaP; test: Pan-caspase detection (FAM-VAD-FMK, confocal); settings: 24 h DEFB1 (hBD-1) induction
# [8] = test system: PC3/AR+; test: MTT cell viability assay; settings: PC3/AR+ compared with PC3
# Description: as §3
substance,measurement,setting,value
"DEFB1: human beta defensin-1 expressed from the ecdysone inducible pIND/DEFB1 construct, induced with Ponasterone A (DHYNCVSSGGQCLYSACPIFTKIQGTCYRGKAKCCK; UniProt P60022 33-68, looked up)",effect on cell viability,[1],no significant effect
same,relative cell viability,"[2]; DU145, 24 h DEFB1 (hBD-1) induction, 10 μM Ponasterone A",72%
same,relative cell viability,"[2]; DU145, 48 h DEFB1 (hBD-1) induction",49%
same,relative cell viability,"[2]; DU145, 72 h DEFB1 (hBD-1) induction",44%
same,relative cell viability,"[3]; PC3, 24 h DEFB1 (hBD-1) induction",56%
same,relative cell viability,"[3]; PC3, 48 h DEFB1 (hBD-1) induction",37%
same,relative cell viability,"[3]; PC3, 72 h DEFB1 (hBD-1) induction",29%
same,cell proliferation,[4],no effect on cell proliferation
same,cell number,[5],significant reduction in cell number
same,cell number,[6],significant reduction in cell number
same,caspase activity,[7],No caspase activity was detected; also recorded: no green staining
same,caspase activity,[7]; listed as hBD-1,no green staining
same,hBD-1 cytotoxicity with ectopic AR expression,[8],no difference between PC3/AR+ and PC3 cells
